In EP4682169A1:
Residue numbers refer to the chain shown, from its start.

B1: 5-hIgG1Fc (Fc fusion, not shown: a dimerising Fc or GST)
chain: QVQLVESGGGLVQTGGSLRLSCAASDSTFSSYIMGWFRQAPGKEREFVAGITWSGGIKDYADSVKGRFTIARDNAKNTVYLQMNSLKPEDAAIYYCAANAIQLTRRSGDYAYWGQGTQVTVSS
B2: 1-hIgG1Fc (Fc fusion, not shown: a dimerising Fc or GST)
chain: EVQLVGSGGGLVQPGGSLRLSCAASGSILNLMTTGWYRQAPGKQRDLVATITFGGTTNYADSVKGRFTISRDKSKNTAYLQMDNLKPEDTAVYFCYADVIVGFQDRRVAWDAGTQVTVSS
B3: 8-hIgG1Fc (Fc fusion, not shown: a dimerising Fc or GST)
chain: QVQLVESGGGLVQPGGSLRLSCAASGSIFGLNFMGWWRQAPGSQRELVAIATSGGSIQYGDSVKGRFTISRDNAKNTVYLQMASLKPEDTAVYYCNVHTYDFLGRDYWGQGTQVTVSL
B4: 10-hIgG1Fc (Fc fusion, not shown: a dimerising Fc or GST)
chain: QVQLAESGGGLVQPGGSLRLSCAASGNILSINYMGWYRQAPGKERELVATITRGGTTNYQGDLKGRFIISGDNTKDTVYLQMNNLQPEDTAVYYCYFRINFGILGGLRDYWGQGTQVTVSS
B5: 2-mIgG2aFc (Fc fusion, not shown: a dimerising Fc or GST)
chain: B4 chain with Q1E, A5V, T56S, D62N

Experiments:
[1] = molecular target: human Claudin18.2 expressed on cells (human) (UniProt P56856); assay: flow cytometry on 293FT-hClaudin18.2 cells, antibody 10 ug/mL, cells with antibody binding/total cells
[2] = molecular target: human Claudin18.1 expressed on cells (human) (UniProt P56856); assay: flow cytometry on 293FT-hClaudin18.1 cells, antibody 10 ug/mL, cells with antibody binding/total cells
[3] = molecular target: human Claudin18.1 expressed on cells (human) (UniProt P56856); assay: flow cytometry on 293FT CLDN18.1-Luc cells, APC anti-mouse IgG Fc

Row | Binder | binding percentage [1] [%] | binding percentage [2] [%] | EC50 [3] [nM]
1 | B1 | 96 | 2.06 | –
2 | B2 | 88.9 | 2.75 | –
3 | B3 | 93.9 | 2.26 | –
4 | B4 | 96.1 | 2.06 | –
5 | B5 | – | – | 133
